Experimental findings from patent WO2021212049A2 are described below.

Assay [1] addresses Mammalian SARS-CoV2 RBD (residues 331-524) with C-terminal 6XHis Tag (SARS-CoV-2) (UniProt P0DTC2). As to the kind of experiment: ELISA on coated antigen, anti-human IgG-HRP.
For assay [2], the target named is untagged SARS-CoV-2 RBD expressed in E. coli BL21(DE3) and oxidatively refolded (RBDWT) (SARS-CoV-2) (UniProt P0DTC2). As to the kind of experiment: BLI, RBD expressed in E. coli. Background: Biolayer interferometry detects binding as a change in optical thickness at a sensor tip.
Assay [3] shares this target. As to the kind of experiment: BLI, RBD expressed in E. coli, 1:1 Langmuir fit.

Broadly, the half-life is how long it takes for the measured level to halve. High values mean slow decline, low ones rapid decline. For orientation: Kd means the concentration at which binding is half-saturated. High values mean a looser complex, low ones a tighter complex. In assay [1], mAb 2B04 (antibody) showed a minimum positive concentration below 5 µg/mL. In assay [2], this substance showed a half-life of 23.7 min. Further, the Kd in assay [3] was 1.05 nM.
